# Assay results taken from patent publication US20240189443A1, “PD-L1 AND TLR7 DOUBLE-TARGETING NANOBODY COUPLING DRUG AND USE THEREOF IN ANTI-TUMOR” (SHANGHAI INSTITUTE OF MATERIA MEDICA, CHINESE ACADEMY OF …, priority 2021, published 2024).
# Substitutions are numbered along the chain they refer to.
# B1: h_Nb2_P100E (VHH)
# VHH: DVQLQESGGGLVQPGGSLRLSCAASGFTFGDRWMYWLRQAPGKGLEWVSSINPAGRSTYYADSVKGRFTISRDNAKNTLYLQMNSLKSEDTAVYYCTKDEGGYQKGQGTQVTVSS
# B2: h_Nb2_P100Q (VHH)
# VHH: B1 VHH with E100Q
# notes: also called 116
# B3: h_Nb2_P100R (VHH)
# VHH: B1 VHH with E100R
# notes: also called 115
# B4: h_Nb26: anti-human PD-L1 nanobody, VHH SEQ ID NO: 56 (protein)
# VHH: DVQLQESGGGLVQPGGSLRLSCAAPGSIFRINAMGWYRQAPGKQRELVAAITSGGSTNYADSVQGRFTISRDNAKNTVYLQMNSLKPEDTAVYYCNVERRRPPHYYSDYDFDWGQGTQVTVSS
# modifications: h_Nb26 Amino acid sequence of VHH
# B5: h_Nb13: anti-human PD-L1 nanobody, VHH SEQ ID NO: 48 (protein)
# VHH: B4 VHH with P25S, R30S, Q44S, Q64K, N73T, Q81L, K86E, Y106L, D108E
# modifications: h_Nb13 Amino acid sequence of VHH
# B6: h_Nb9: anti-human PD-L1 nanobody, VHH SEQ ID NO: 40 (protein)
# VHH: DVQLQESGGGLVQPGGSLRLSCASSGSIFGLGVKGWYRQPPGNQREMVAQIISGGRISYADSVKGRFTISRDNAKNTVYLQMNSLKPEDTAVYYCNAWGPGQRNYWGRGTQVTVSS
# modifications: h_Nb9 Amino acid sequence of VHH
# B7: h_Nb12: anti-human PD-L1 nanobody, VHH SEQ ID NO: 44 (protein)
# VHH: DVQLQESGGGLVQAGGSLRLSCAASGRTFSSRAMGWFRQAPGKEREFVAAISGSGRNTYYADSVKGRFTISRDNAKNSVNLQMNSLKPEDTAVYYCNAAGGGITIATMTQRTQYDYWGQGTQVTVSS
# modifications: h_Nb12 Amino acid sequence of VHH
# B8: h_Nb5: anti-human PD-L1 nanobody, VHH SEQ ID NO: 33 (protein)
# VHH: DVQLQESGGGAVQSGESLRLSCAASGRDLMFYDVAWFRQAPGKEREGVSYIRSSGTLTKYADSVKGRFTISRDNDKNTVSLQMNSLNPEDTAKYYCAARLQSATSHSDLREDEFNSWGQGTQVTVSS
# modifications: h_Nb5 Amino acid sequence of VHH
# B9: h_Nb4: anti-human PD-L1 nanobody, VHH SEQ ID NO: 29 (protein)
# VHH: DVQLQESGGGLVQAGGSLRLSCAAPSRMFSGYTMGWYRQAPGKQRELVAQIANGGFTDYIDSVKGRFSISRDTVLNMMYLQMNSLKPEDTAVYYCNLVLVNGIPTRNWGQGTQVTVSS
# modifications: h_Nb4 Amino acid sequence of VHH
# B10: h_Nb6: anti-human PD-L1 nanobody, VHH SEQ ID NO: 37 (protein)
# VHH: DVQLQESGGGLAQPGGSLRLSCAASGFTFSSYAMSWARQAPGKGLEWVAGIYRGGSDTYYADSVKGRFTISRDNTKNTLYLQMNSLKPEDTALYYCIQGWGLGYANYDYWGQGTQVTVSS
# modifications: h_Nb6 Amino acid sequence of VHH
# B11: anti-human PD-L1 nanobody h_Nb13 (Fc fusion)
# chain: B4 VHH with P25S, R30S, Q44S, Q64K, N73T, Q81L, K86E, Y106L, D108E
# notes: not shown: Fc of human IgG1 from vector pFUSE-hIgG1-Fc
# B12: anti-human PD-L1 nanobody h_Nb26 (Fc fusion)
# chain: B4 VHH
# notes: as for B11
# B13: anti-human PD-L1 nanobody h_Nb9 (Fc fusion)
# chain: B6 VHH
# notes: as for B11
# B14: anti-human PD-L1 nanobody h_Nb12 (Fc fusion)
# chain: B7 VHH
# notes: as for B11
# B15: anti-human PD-L1 nanobody h_Nb2 (Fc fusion)
# chain: B1 VHH with E100P
# notes: as for B11
# B16: anti-human PD-L1 nanobody h_Nb5 (Fc fusion)
# chain: B8 VHH
# notes: as for B11
# B17: anti-human PD-L1 nanobody h_Nb4 (Fc fusion)
# chain: B9 VHH
# notes: as for B11
# B18: anti-human PD-L1 nanobody h_Nb1 (Fc fusion)
# chain: DVQLQESGGGLVQPGGSLRLSCAASGFTFSSYAMSWVRQAPGKGLEWVSDINSGGDNTDYADSVKGRFTISRDNAKNTLYLQMNSLKPEDTAVYYCARGPKLCFSSWGQGTQVTVSS
# notes: Cloned into pFUSE-mIgG2b-Fc and pFUSE-hIgG1-Fc; not shown: Fc of human IgG1 from vector pFUSE-hIgG1-Fc
# B19: anti-human PD-L1 nanobody h_Nb6 (Fc fusion)
# chain: B10 VHH
# notes: as for B11
# Target: PD-L1 (human PD-L1 protein of the ELISA of Example 16) (human, UniProt Q9NZQ7 19-238, limits assumed)
# Sequence (Q9NZQ7 19-238 limits assumed): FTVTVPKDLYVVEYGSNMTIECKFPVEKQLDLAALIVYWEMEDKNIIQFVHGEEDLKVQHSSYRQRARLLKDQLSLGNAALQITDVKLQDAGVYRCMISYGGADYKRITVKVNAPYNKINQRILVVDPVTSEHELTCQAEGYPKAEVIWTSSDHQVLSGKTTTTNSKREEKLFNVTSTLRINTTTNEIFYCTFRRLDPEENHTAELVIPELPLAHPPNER
# Experiment: ELISA; affinity relative to original antibody h_Nb2 VHH (SEQ ID NO.25)
# Conditions: not given
row,Molecule,Increased relative affinity
1,B1,3.98 relative
2,B2,3.41 relative
3,B3,7.21 relative

# Target: T1, HEK293T/hPD-L1 (Homo sapiens, UniProt Q9NZQ7)
# T1 construct: expressed in transfected cells; host or cells: HEK293T
# T1 sequence (Q9NZQ7 19-290): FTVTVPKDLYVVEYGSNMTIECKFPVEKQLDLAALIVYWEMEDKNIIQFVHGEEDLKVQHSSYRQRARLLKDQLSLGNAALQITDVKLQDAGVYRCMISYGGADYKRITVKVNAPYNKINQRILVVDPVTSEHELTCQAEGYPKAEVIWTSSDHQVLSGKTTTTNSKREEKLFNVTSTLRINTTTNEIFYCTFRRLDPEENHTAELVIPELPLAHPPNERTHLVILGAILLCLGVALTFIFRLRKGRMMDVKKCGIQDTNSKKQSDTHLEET
# Experiment: Human PD-L1 binding activity assay of candidate anti-human PD-L1 nanobodies (flow cytometry)
# Conditions: nanobody 10 μg/mL
# Protocol: (§1) The cell strain HEK293T/hPD-L1 was digested, and centrifugationwas performed to remove the supernatant; the cells were washed one time with PBS and the cell density was adjusted to 2.5×10^6 cells/mL; each cell sample was added to a 100 μL cell suspension, that is, a 2.5×10^5 cell/sample was comprised; different anti-human PD-L1 candidate nanobodies (the concentration is 10 μg/mL) were respectively added to the samples; incubating for 20 min at 4° C.; centrifuging, removing supernatant, and the cells were washing once with PBS; using diluted antibody anti-human IgG Fc (FITC) as secondary antibody, and the cells were re-suspended; incubating at 4° C. for 20 min; centrifuging, removing supernatant, the cells were washing twice with PBS, and transferred to a flow tube; and was performed on-machine detection by using a flow cytometer to obtain the binding activity of the candidate nanobody and human PD-L1, as shown in FIG. 13.
row,Molecule,Binding activity with human PD-L1
1,B4,good binding activity
2,B5,good binding activity
3,B6,good binding activity
4,B7,good binding activity
5,B8,good binding activity
6,B9,good binding activity
7,B10,good binding activity

# Target: T2, human PD-L1 on cell strain HEK293T/hPD-L1 (human, UniProt Q9NZQ7 19-290)
# T2 construct: whole, on cells
# T2 sequence (Q9NZQ7 19-290): as above
# Experiment: flow cytometry on HEK293T/hPD-L1, 10 µg/mL, anti-human IgG Fc (FITC)
# Conditions: not given
# Protocol: as §1, with “2.5×10⁶” for “2.5×10^6”, “2.5×10⁵” for “2.5×10^5”
row,Molecule,binding result
1,B11,binds
2,B12,binds
3,B13,binds
4,B14,binds
5,B15,binds
6,B16,binds
7,B17,binds
8,B18,binds
9,B19,binds
